Read-outs that look alike come from different tables or passages of the source.
B1: mLic3 (antibody, V domains shown)
VH: EVQLVESGGGLVKPGGSLKLSCAASGFSFSDYYMYWVRQAPEKRLEWVASISFDGTYTYYTDRVKGRFTISRDNAKNNLYLQMSSLKSEDTAMYYCARDRPAWFPYWGQGTLVTVSA
VL: DVLMTQIPLSLTVSLGDQASISCRSSQSIVHSNGNTYLEWYLQRPGQSPKLLIYKVSNRFSGVPDRFSGSGSGTDFTLKISRVEAEDLGVYYCFQGSHVPLTFGAGTKLELK
B2: m7C5 (antibody, V domains shown)
VH: QVQLQQSGAELARPGASVKLSCKASGYTFTSYGLSWVKQRTGQGLEWIGEIFPRSGNSYYNEKFKGKAALTADKSSSTAYMQLSSLTSEDSAVYFCARHYYSSLYYAMDYWGQGTSVTVSS
VL: DIQVTQSPASLSASVGESVSITCGTNENLYGALNWYQRKQGKSPQLLIYGATNLADGMSSRFSGSGSGRQYSLKISSLHPDDVATYYCQNVLSTPRTFGGGTKLEIK

Experiments:
[1] = target: T1, recombinant CDH17-hFc (human, UniProt Q12864 23-787); assay: ELISA
T1 sequence (Q12864 23-787): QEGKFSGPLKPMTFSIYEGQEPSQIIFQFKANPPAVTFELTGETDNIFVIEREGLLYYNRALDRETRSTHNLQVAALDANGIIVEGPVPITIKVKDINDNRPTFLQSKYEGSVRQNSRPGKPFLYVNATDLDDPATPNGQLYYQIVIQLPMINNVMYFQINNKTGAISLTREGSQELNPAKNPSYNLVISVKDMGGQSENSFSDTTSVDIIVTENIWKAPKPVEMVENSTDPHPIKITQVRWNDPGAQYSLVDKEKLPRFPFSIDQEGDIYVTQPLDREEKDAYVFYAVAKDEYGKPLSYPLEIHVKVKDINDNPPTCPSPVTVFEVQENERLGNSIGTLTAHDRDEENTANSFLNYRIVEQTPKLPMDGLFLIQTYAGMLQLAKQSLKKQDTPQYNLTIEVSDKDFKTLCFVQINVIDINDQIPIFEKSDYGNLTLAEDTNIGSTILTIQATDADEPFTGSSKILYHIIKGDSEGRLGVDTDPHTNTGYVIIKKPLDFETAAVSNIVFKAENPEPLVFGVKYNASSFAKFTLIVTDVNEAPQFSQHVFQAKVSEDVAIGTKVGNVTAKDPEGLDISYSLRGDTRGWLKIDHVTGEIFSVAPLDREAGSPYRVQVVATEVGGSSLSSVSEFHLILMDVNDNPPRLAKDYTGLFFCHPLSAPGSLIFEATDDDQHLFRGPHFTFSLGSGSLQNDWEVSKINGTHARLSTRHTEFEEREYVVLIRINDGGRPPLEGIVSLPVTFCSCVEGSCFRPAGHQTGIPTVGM

[2] = target: T1, recombinant CDH17-hFc; assay: OCTET BLI
[3] = target: T1, recombinant CDH17-hFc; assay: ELISA; remark: listed apart in the source
[4] = target: T1, recombinant CDH17-hFc; assay: OCTET BLI; remark: listed apart in the source

EC50 [1] [ng/mL] | Kd [2] [nM] | EC50 [3] [ng/mL] | Kd [4] [nM] | Binder
7.9 | 10.9 |  |  | B1
 |  | 4.2 | 20.6 | B2
